Source: publication PMC10920655, “Identification and characterization of CIM-1, a carbapenemase that adds to the family of resistance factors against last resort antibiotics” (Communications Biology, 2024)
Converted amounts (≈) assume the structure as drawn.

How the values were obtained:
[1] = system: T1, E. coli C41(DE3) with pET41a(+); assay: microbe, parasite or virus in culture; parameters: species or system C. indologenes 3362; E. coli C41(DE3); Broth microdilution MIC, ISO 20776-1/EUCAST, cation-adjusted Mueller Hinton broth, after IPTG induction; details: Escherichia coli; empty vector pET41a(+), IPTG induced
T1 construct: C41(DE3) empty vector pET41a(+), control
Description: (§1) The in vitro minimum inhibitory concentration (MIC) of β-lactams including penicillins, cephalosporins, and carbapenems in C. indologenes 3362 and E. coli C41(DE3) carrying different constructs were determined using the broth microdilution assay according to the International Standard ISO 20776-1 as recommended by EUCAST (the European Committee on Antimicrobial Susceptibility Testing). Briefly, bacterial cultures were grown aerobically at 37 °C to an OD600 0.4–0.6 in the presence of 25 μg/mL kanamycin, when necessary, before 1 mM IPTG (isopropyl-β-d-thiogalactopyranoside) was added. The induction was allowed for 2 h at 37 °C before the bacterial culture was diluted to 4 × 10^6 CFU/mL, and the microbroth dilution assays were performed. Cation-adjusted Mueller Hinton (CAMH) broth was used. All assays were repeated at least four times on four different days with different batches of cells.

C. indologenes #3362 = system: T2, C. indologenes #3362; assay: microbe, parasite or virus in culture; parameters: species or system C. indologenes 3362; E. coli C41(DE3); Broth microdilution MIC, ISO 20776-1/EUCAST, cation-adjusted Mueller Hinton broth, after IPTG induction; details: Chryseobacterium indologenes; native isolate carrying IND-2 and CIM-1
T2 construct: 3362
Description: as §1

IND-2ΔSig [2] = biological target: T3, IND-2ΔSig (Chryseobacterium indologenes, UniProt Q9ETN2); assay: steady-state hydrolysis, UV absorbance […] nm, plate reader; format: biochemical; details: read-out: Km (μM) / IND-2ΔSig; 50 mM HEPES pH 7.0, 10 μM ZnSO4, 25 ± 2 °C, 100 nM enzyme
T3 construct: gene blaIND-2b

IND-2ΔSig [3] = biological target: T3, IND-2ΔSig; assay: steady-state hydrolysis, UV absorbance, plate reader; details: read-out: Km (μM) / IND-2ΔSig; 50 mM HEPES pH 7.0, 10 μM ZnSO4, 25 ± 2 °C, 100 nM enzyme
[4] = system: C[C@@H](O)[C@H]1C(=O)N2C(C(=O)O)=C(SCCN=CN)C[C@H]12; assay: purified protein; details: 50 mM HEPES pH 7.0, 10 μM ZnSO4, 25 ± 2 °C, 100 nM enzyme, 25.0 °C
[5] = system: C[C@@H](O)[C@H]1C(=O)N2C(C(=O)O)=C(S[C@@H]3CN[C@H](CNS(N)(=O)=O)C3)[C@H](C)[C@H]12; assay: purified protein; details: 50 mM HEPES pH 7.0, 10 μM ZnSO4, 25 ± 2 °C, 100 nM enzyme, 25.0 °C
Description: steady-state hydrolysis, UV absorbance, plate reader on CIM-1ΔSig

[6] = system: C[C@@H](O)[C@H]1C(=O)N2C(C(=O)O)=C(S[C@@H]3CN[C@H](C(=O)Nc4cccc(C(=O)O)c4)C3)[C@H](C)[C@H]12; assay: purified protein; details: 50 mM HEPES pH 7.0, 10 μM ZnSO4, 25 ± 2 °C, 100 nM enzyme, 25.0 °C
[7] = system: C[C@@H](O)[C@H]1C(=O)N2C(C(=O)O)=C(S[C@@H]3CN[C@H](C(=O)N(C)C)C3)[C@H](C)[C@H]12; assay: purified protein; details: 50 mM HEPES pH 7.0, 10 μM ZnSO4, 25 ± 2 °C, 100 nM enzyme, 25.0 °C
[8] = system: O=C(Cc1cccs1)N[C@@H]1C(=O)N2C(C(=O)O)=C(/C=C/c3ccc([N+](=O)[O-])cc3[N+](=O)[O-])CS[C@H]12; assay: purified protein; details: 50 mM HEPES pH 7.0, 10 μM ZnSO4, 25 ± 2 °C, 100 nM enzyme, 25.0 °C
[9] = system: CC(C)(O/N=C(\C(=O)N[C@@H]1C(=O)N2C(C(=O)[O-])=C(C[n+]3ccccc3)CS[C@H]12)c1csc(N)n1)C(=O)O; assay: purified protein; details: 50 mM HEPES pH 7.0, 10 μM ZnSO4, 25 ± 2 °C, 100 nM enzyme, 25.0 °C
[10] = system: CO/N=C(\C(=O)N[C@@H]1C(=O)N2C(C(=O)[O-])=C(C[N+]3(C)CCCC3)CS[C@H]12)c1csc(N)n1; assay: purified protein; details: 50 mM HEPES pH 7.0, 10 μM ZnSO4, 25 ± 2 °C, 100 nM enzyme, 25.0 °C
NDM-4ΔSig = biological target: T4, NDM-4ΔSig (Klebsiella pneumoniae, UniProt C7C422, M154L); assay: steady-state hydrolysis, absorbance […] nm, plate reader; format: biochemical; details: read-out: Km (μM) / NDM-4ΔSig; 50 mM HEPES pH 7.0, 10 μM ZnSO4, 25 ± 2 °C, 100 nM enzyme
T4 construct: gene blaNDM-1

[11] = system: C[C@@H](O)[C@H]1C(=O)N2C(C(=O)O)=C(S[C@@H]3CN[C@H](CNS(N)(=O)=O)C3)[C@H](C)[C@H]12; assay: steady-state hydrolysis, UV absorbance, plate reader; format: biochemical, Klebsiella pneumoniae; details: 50 mM HEPES pH 7.0, 10 μM ZnSO4, 25 ± 2 °C, 100 nM enzyme, 25.0 °C
Excerpt: (§2) steady-state hydrolysis, UV absorbance, plate reader on NDM-4ΔSig

[12] = system: C[C@@H](O)[C@H]1C(=O)N2C(C(=O)O)=C(S[C@@H]3CN[C@H](C(=O)Nc4cccc(C(=O)O)c4)C3)[C@H](C)[C@H]12; assay: as above; format: biochemical, Klebsiella pneumoniae; details: 50 mM HEPES pH 7.0, 10 μM ZnSO4, 25 ± 2 °C, 100 nM enzyme, 25.0 °C
Excerpt: as §2

[13] = system: C[C@@H](O)[C@H]1C(=O)N2C(C(=O)O)=C(SCCN=CN)C[C@H]12; assay: purified protein; format: biochemical, Klebsiella pneumoniae; details: 50 mM HEPES pH 7.0, 10 μM ZnSO4, 25 ± 2 °C, 100 nM enzyme, 25.0 °C
[14] = system: C[C@@H](O)[C@H]1C(=O)N2C(C(=O)O)=C(S[C@@H]3CN[C@H](C(=O)N(C)C)C3)[C@H](C)[C@H]12; assay: purified protein; format: biochemical, Klebsiella pneumoniae; details: 50 mM HEPES pH 7.0, 10 μM ZnSO4, 25 ± 2 °C, 100 nM enzyme, 25.0 °C
[15] = system: CC(C)(O/N=C(\C(=O)N[C@@H]1C(=O)N2C(C(=O)[O-])=C(C[n+]3ccccc3)CS[C@H]12)c1csc(N)n1)C(=O)O; assay: purified protein; format: biochemical, Klebsiella pneumoniae; details: 50 mM HEPES pH 7.0, 10 μM ZnSO4, 25 ± 2 °C, 100 nM enzyme, 25.0 °C
[16] = system: CO/N=C(\C(=O)N[C@@H]1C(=O)N2C(C(=O)[O-])=C(C[N+]3(C)CCCC3)CS[C@H]12)c1csc(N)n1; assay: purified protein; format: biochemical, Klebsiella pneumoniae; details: 50 mM HEPES pH 7.0, 10 μM ZnSO4, 25 ± 2 °C, 100 nM enzyme, 25.0 °C
IND-2ΔSig [17] = biological target: T3, IND-2ΔSig; assay: steady-state hydrolysis, UV absorbance […] or […] nm, plate reader; details: read-out: Km (μM) / IND-2ΔSig; 50 mM HEPES pH 7.0, 10 μM ZnSO4, 25 ± 2 °C, 100 nM enzyme

T3 sequence (Q9ETN2 entry or part of it, stated change not applied): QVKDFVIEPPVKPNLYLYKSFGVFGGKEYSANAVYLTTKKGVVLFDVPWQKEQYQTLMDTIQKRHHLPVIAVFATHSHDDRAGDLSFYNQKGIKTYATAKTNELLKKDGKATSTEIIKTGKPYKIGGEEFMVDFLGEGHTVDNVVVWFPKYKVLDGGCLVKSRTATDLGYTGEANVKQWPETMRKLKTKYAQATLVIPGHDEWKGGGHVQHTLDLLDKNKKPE
T4 sequence (C7C422 26-270 M154L): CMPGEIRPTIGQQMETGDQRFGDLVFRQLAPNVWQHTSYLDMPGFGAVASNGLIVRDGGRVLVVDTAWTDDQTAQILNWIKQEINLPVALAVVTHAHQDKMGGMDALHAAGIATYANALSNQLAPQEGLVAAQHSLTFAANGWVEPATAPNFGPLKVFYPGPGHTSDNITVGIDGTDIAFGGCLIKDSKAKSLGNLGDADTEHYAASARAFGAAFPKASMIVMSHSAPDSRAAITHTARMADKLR

Compound: CC(C)(O/N=C(\C(=O)N[C@@H]1C(=O)N2C(C(=O)[O-])=C(C[n+]3ccccc3)CS[C@H]12)c1csc(N)n1)C(=O)O [Ceftazidime]
- MIC [1]: 0.125 µg/mL (≈ 0.229 µM)
- MIC (C. indologenes #3362): 16 µg/mL (≈ 29.3 µM)
- Km (IND-2ΔSig [2]): > 1000 µM

Compound: C[C@@H](O)[C@H]1C(=O)N2C(C(=O)O)=C(S[C@@H]3CN[C@H](CNS(N)(=O)=O)C3)[C@H](C)[C@H]12 [Doripenem]
- MIC [1]: 0.063 µg/mL (≈ 0.15 µM)
- MIC (C. indologenes #3362): 128 µg/mL (≈ 304 µM)
- Km (IND-2ΔSig [3]): > 1000 µM

Compound: CO[C@@]1(NC(=O)Cc2cccs2)C(=O)N2C(C(=O)O)=C(COC(N)=O)CS[C@@H]21 [*Cefoxitin (2nd)]
- MIC [1]: 0.5 µg/mL (≈ 1.17 µM)
- MIC (C. indologenes #3362): 32 µg/mL (≈ 74.9 µM)

Compound: CO/N=C(\C(=O)N[C@@H]1C(=O)N2C(C(=O)[O-])=C(C[N+]3(C)CCCC3)CS[C@H]12)c1csc(N)n1 [Cefepime]
- MIC [1]: 0.031 µg/mL (≈ 0.0645 µM)
- MIC (C. indologenes #3362): 2 µg/mL (≈ 4.16 µM)

Compound: Cc1nnc(SCC2=C(C(=O)O)N3C(=O)[C@@H](NC(=O)Cn4cnnn4)[C@H]3SC2)s1 [*Cefazolin (1st)]
- MIC [1]: 2 µg/mL (≈ 4.4 µM)
- MIC (C. indologenes #3362): 256 µg/mL (≈ 563 µM)

Compound: CIM-1ΔSig (Chryseobacterium indologenes)
- Km [4]: 94 ± 7 µM
- kcat [4]: 8.5 s⁻¹
- kcat/Km [4]: 90000 M⁻¹ s⁻¹
- Km [5]: 175 ± 24 µM
- kcat [5]: 21 s⁻¹
- kcat/Km [5]: 120000 M⁻¹ s⁻¹
- Km [6]: 91 ± 11 µM
- kcat [6]: 9.2 s⁻¹
- kcat/Km [6]: 100000 M⁻¹ s⁻¹
- Km [7]: 143 ± 19 µM
- kcat [7]: 15 s⁻¹
- kcat/Km [7]: 100000 M⁻¹ s⁻¹
- Km [8]: 33 ± 6 µM
- kcat [8]: 2.8 s⁻¹
- kcat/Km [8]: 85000 M⁻¹ s⁻¹
- Km [9]: 324 ± 42 µM
- kcat [9]: 30 s⁻¹
- kcat/Km [9]: 93000 M⁻¹ s⁻¹
- Km [10]: 538 ± 56 µM
- kcat [10]: 15.3 s⁻¹
- kcat/Km [10]: 28000 M⁻¹ s⁻¹

Compound: O=C(Cc1cccs1)N[C@@H]1C(=O)N2C(C(=O)O)=C(/C=C/c3ccc([N+](=O)[O-])cc3[N+](=O)[O-])CS[C@H]12 [Nitrocefin]
- Km (NDM-4ΔSig): 11 ± 1.8 µM

Compound: C[C@@H](O)[C@H]1C(=O)N2C(C(=O)O)=C(S[C@@H]3CN[C@H](C(=O)Nc4cccc(C(=O)O)c4)C3)[C@H](C)[C@H]12 [Ertapenem]
- MIC [1]: 0.016 µg/mL (≈ 0.0336 µM)
- MIC (C. indologenes #3362): 64 µg/mL (≈ 135 µM)

Compound: C[C@H]1[C@H](NC(=O)/C(=N\OC(C)(C)C(=O)O)c2csc(N)n2)C(=O)N1S(=O)(=O)O [Aztreonam]
- MIC [1]: < 0.02 µg/mL
- MIC (C. indologenes #3362): > 512 µg/mL

Compound: NDM-4ΔSig (Klebsiella pneumoniae; M154L)
- Km [11]: 253 ± 19 µM
- kcat [11]: 51 s⁻¹
- kcat/Km [11]: 200000 M⁻¹ s⁻¹
- Km [12]: 159 ± 22 µM
- kcat [12]: 17 s⁻¹
- kcat/Km [12]: 110000 M⁻¹ s⁻¹
- Km [13]: 151 ± 22 µM
- kcat [13]: 31 s⁻¹
- kcat/Km [13]: 210000 M⁻¹ s⁻¹
- Km [14]: 163 ± 22 µM
- kcat [14]: 25 s⁻¹
- kcat/Km [14]: 150000 M⁻¹ s⁻¹
- Km [15]: 93 ± 14 µM
- kcat [15]: 6.3 s⁻¹
- kcat/Km [15]: 68000 M⁻¹ s⁻¹
- Km [16]: 136 ± 16 µM
- kcat [16]: 5.4 s⁻¹
- kcat/Km [16]: 40000 M⁻¹ s⁻¹

Compound: IND-2ΔSig (Chryseobacterium indologenes)
- Km [4]: 728 ± 102 µM
- kcat [4]: 208 s⁻¹
- kcat/Km [4]: 290000 M⁻¹ s⁻¹
- Km [6]: 1069 ± 105 µM
- kcat [6]: 127 s⁻¹
- kcat/Km [6]: 120000 M⁻¹ s⁻¹
- Km [8]: 113 ± 6.9 µM
- kcat [8]: 78 s⁻¹
- kcat/Km [8]: 680000 M⁻¹ s⁻¹

Compound: CC1(C)S[C@@H]2[C@H](NC(=O)[C@H](N)c3ccccc3)C(=O)N2[C@H]1C(=O)O [Ampicillin]
- MIC [1]: 4 µg/mL (≈ 11.4 µM)
- MIC (C. indologenes #3362): 512 µg/mL (≈ 1470 µM)

Compound: C[C@@H](O)[C@H]1C(=O)N2C(C(=O)O)=C(SCCN=CN)C[C@H]12 [Imipenem]
- MIC [1]: 0.5 µg/mL (≈ 1.67 µM)
- MIC (C. indologenes #3362): 128 µg/mL (≈ 428 µM)

Compound: C[C@@H](O)[C@H]1C(=O)N2C(C(=O)O)=C(S[C@@H]3CN[C@H](C(=O)N(C)C)C3)[C@H](C)[C@H]12 [Meropenem]
- Km (IND-2ΔSig [17]): > 1000 µM
- MIC [1]: 0.031 µg/mL (≈ 0.0808 µM)
- MIC (C. indologenes #3362): 128 µg/mL (≈ 334 µM)
